Source: US20200079851A1 (University of Texas, published 2020)

Columns and labels:
[1] = biological target: T1, human LILRB4 (human, UniProt Q8NHJ6 22-259, limits assumed); test: ELISA
T1 construct: also called leukocyte immunoglobulin-like receptor subfamily B member 4

[2] = biological target: T2, LILRB4-ECD-Fc (human, UniProt Q8NHJ6 27-259); test: ELISA, mAb titrated
T2 construct: also called LILRB4-Fc; LILRB4 ECD-Fc fusion protein; not shown: Fc part

[3] = biological target: T3, LILRB4 D1 (first Ig-like domain) Fc fusion protein (human, UniProt Q8NHJ6 27-118); test: ELISA, mAb titrated
T3 construct: also called D1 of LILRB4; not shown: Fc part
T3 sequence (Q8NHJ6 27-118): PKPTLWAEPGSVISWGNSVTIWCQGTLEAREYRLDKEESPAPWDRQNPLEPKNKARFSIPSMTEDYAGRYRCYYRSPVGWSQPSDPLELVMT

[4] = biological target: T1, human LILRB4; test: ELISA, OD450 against antibody concentration
[5] = biological target: T4, LILRB1 (human, UniProt Q8NHL6 24-458, limits assumed); test: cross-reactivity test on the LILRBs (ELISA per paragraph 433)
T4 construct: also called leukocyte immunoglobulin-like receptor subfamily B member 1
T4 sequence (Q8NHL6 24-458 limits assumed): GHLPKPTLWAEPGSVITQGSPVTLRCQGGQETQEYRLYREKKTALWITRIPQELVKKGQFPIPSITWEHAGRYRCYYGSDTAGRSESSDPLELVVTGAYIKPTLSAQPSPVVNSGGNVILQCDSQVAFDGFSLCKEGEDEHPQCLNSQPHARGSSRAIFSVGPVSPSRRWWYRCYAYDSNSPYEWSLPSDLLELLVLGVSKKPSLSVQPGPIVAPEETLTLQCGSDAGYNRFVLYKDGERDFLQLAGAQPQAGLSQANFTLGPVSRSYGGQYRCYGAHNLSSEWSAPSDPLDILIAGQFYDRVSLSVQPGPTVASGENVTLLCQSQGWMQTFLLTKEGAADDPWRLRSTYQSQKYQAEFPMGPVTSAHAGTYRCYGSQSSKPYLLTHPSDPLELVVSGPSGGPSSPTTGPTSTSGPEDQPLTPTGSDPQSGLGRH

[6] = biological target: T5, LILRB2 (human, UniProt Q8N423 22-458, limits assumed); test: as above
T5 construct: also called leukocyte immunoglobulin-like receptor subfamily B member 2
T5 sequence (Q8N423 22-458 limits assumed): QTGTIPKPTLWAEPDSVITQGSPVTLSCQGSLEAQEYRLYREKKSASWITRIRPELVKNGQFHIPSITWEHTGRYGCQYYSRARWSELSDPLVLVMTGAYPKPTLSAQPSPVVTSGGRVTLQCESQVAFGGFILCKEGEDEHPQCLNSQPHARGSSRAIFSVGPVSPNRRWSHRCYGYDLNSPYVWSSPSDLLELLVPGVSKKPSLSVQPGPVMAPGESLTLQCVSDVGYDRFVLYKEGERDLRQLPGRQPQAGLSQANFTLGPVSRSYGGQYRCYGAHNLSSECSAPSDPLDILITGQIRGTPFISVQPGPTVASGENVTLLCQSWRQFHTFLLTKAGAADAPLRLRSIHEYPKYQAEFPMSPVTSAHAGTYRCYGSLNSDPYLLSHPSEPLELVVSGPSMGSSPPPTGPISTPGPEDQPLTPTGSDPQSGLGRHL

[7] = biological target: T6, LILRB3 (human, UniProt O75022 24-443, limits assumed); test: as above
T6 construct: also called leukocyte immunoglobulin-like receptor subfamily B member 3
T6 sequence (O75022 24-443 limits assumed): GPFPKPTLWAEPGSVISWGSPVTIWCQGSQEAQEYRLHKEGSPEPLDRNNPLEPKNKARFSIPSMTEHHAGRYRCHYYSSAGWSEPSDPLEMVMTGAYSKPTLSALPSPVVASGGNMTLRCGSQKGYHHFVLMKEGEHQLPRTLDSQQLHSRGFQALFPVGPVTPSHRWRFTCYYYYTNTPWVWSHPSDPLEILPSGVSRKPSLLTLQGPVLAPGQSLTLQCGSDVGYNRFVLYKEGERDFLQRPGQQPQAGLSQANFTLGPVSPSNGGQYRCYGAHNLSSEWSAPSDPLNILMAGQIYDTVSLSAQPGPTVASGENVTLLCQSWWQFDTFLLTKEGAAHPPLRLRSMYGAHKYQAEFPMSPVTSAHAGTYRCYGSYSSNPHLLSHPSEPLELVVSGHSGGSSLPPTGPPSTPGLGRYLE

[8] = biological target: T7, LILRB5 (human, UniProt O75023 24-458, limits assumed); test: as above
T7 sequence (O75023 24-458 limits assumed): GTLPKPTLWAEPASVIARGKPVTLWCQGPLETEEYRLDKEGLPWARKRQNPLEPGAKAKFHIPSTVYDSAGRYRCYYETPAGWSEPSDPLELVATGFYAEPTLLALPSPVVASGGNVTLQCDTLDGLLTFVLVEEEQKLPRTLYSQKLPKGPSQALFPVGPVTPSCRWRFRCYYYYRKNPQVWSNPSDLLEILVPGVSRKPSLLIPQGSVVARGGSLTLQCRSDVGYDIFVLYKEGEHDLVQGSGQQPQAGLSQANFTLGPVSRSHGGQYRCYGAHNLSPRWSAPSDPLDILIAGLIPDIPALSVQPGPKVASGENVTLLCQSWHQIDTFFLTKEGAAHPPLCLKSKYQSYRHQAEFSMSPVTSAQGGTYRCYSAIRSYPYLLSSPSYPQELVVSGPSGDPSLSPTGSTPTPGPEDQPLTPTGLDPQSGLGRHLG

[9] = biological target: T8, D2; test: matrix of binding to LILRB4 domain-Fc fusions (FIG. 47); ELISA per paragraph 433
T8 construct: also called LILRB4 D2-hIgG1-Fc; second Ig-like domain of LILRB4 as Fc fusion
T8 sequence (fusion chain, as listed by the source): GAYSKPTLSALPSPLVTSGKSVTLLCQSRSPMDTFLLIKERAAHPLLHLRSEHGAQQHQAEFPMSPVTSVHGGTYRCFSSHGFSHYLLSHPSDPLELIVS

[10] = biological target: T9, SR; test: as above
T9 construct: also called LILRB4 SR-hIgG1-Fc; stalk region of LILRB4 as Fc fusion
T9 sequence (fusion chain, as listed by the source): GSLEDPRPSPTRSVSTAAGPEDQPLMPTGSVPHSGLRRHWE

[11] = biological target: T1, human LILRB4; test: ELISA, mAb titrated on the WT protein of the LILRB4 mutant series of FIG. 52 (construct limits not stated)
[12] = biological target: T10, D2-SR-Fc; test: ELISA, mAb titrated
T10 construct: also called D2-SR-WT
T10 sequence (Q8NHJ6 119-259): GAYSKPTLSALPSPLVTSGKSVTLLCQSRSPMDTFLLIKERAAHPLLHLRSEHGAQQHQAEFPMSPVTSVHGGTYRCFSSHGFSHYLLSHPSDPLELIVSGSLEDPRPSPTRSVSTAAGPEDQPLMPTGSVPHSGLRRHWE

[13] = biological target: T6, LILRB3; test: cross-reactivity ELISA (FIG. 46)
[14] = biological target: T7, LILRB5; test: cross-reactivity ELISA (FIG. 46)
[15] = biological target: D2-SR-M16(210-259); test: ELISA, mAb 139 titrated
Chain of D2-SR-M16(210-259) (chain, as listed by the source): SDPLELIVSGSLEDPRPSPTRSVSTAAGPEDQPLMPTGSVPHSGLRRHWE

[16] = biological target: T1, human LILRB4; test: ELISA, OD450 against antibody concentration; remark: listed apart in the source
[17] = biological target: T3, LILRB4 D1 (first Ig-like domain) Fc …; test: matrix of binding to LILRB4 domain-Fc fusions (FIG. 47); ELISA per paragraph 433
[18] = biological target: T1, human LILRB4; test: ELISA, OD450 against antibody concentration; remark: listed apart in the source
[19] = biological target: T1, human LILRB4; test: ELISA, OD450 against antibody concentration; remark: listed apart in the source
[20] = biological target: T1, human LILRB4; test: ELISA, OD450 against antibody concentration; remark: listed apart in the source
[21] = biological target: T1, human LILRB4; test: ELISA, OD450 against antibody concentration; remark: listed apart in the source
[22] = biological target: T1, human LILRB4; test: ELISA, OD450 against antibody concentration; remark: listed apart in the source
[23] = biological target: T1, human LILRB4; test: ELISA, OD450 against antibody concentration; remark: listed apart in the source
[24] = biological target: T1, human LILRB4; test: reactivity table, assay not named on the sheet
[25] = biological target: T6, LILRB3; test: reactivity table, assay not named on the sheet
[26] = biological target: T7, LILRB5; test: reactivity table, assay not named on the sheet
[27] = biological target: T5, LILRB2; test: flow cytometry on LILRB2-overexpressing 293T cells, mAb at 2 ug/ml

B1: anti-LILRB4 rabbit monoclonal antibody #128-3 (antibody, V domains shown)
VH: EQSLEESGGDLVTPGASLTLTCKASGIDFSNHYYIYWVRQAPGKGLEWIGCIFSGDSASTYYASWAKGRFTISKSSSPTVTLQMTSLTAADTATYFCARGMSTNDWASDLWGPGTMVTVSS
VL: ELVMTQTPASVSAAVGGTVTINCQASESINSIYLAWYQQKPGQRPKLLIYRASTLASGVSSRFKGSASGTGFTLTISDLECADAATYYCQQSYDWGDVENTFGGGTEVEIK
Q: What does the source list for B1?
A: EC50 [1]: 0.184 nM; EC50 (read off the curve) [2]: ~0.02 µg/mL; EC50 (read off the curve) [3]: ~0.02 µg/mL; EC50 [4]: 0.0276 µg/mL; binding result [5]: no binding; binding result [6]: no binding; binding result [7]: no binding; binding result [8]: no binding; binding result [9]: no binding; binding result [10]: no binding; EC50 (read off the curve) [11]: ~0.01 µg/mL

B2: anti-LILRB4 rabbit monoclonal antibody #139 (antibody, V domains shown)
VH: EQSLEESGGRLVTPGTPLTLTCTVSGFSLNSYAMAWVRQAPGKGLEWIGIIGLSTMTYYASWVNGRFTISKTSTTVDLKMTSLTTEDTATYFCVRNDVYWAFNLWGQGTLVTVSS
VL: ELDLTQTPSSVSAGVGGTVSISCQSSESVVNNHALSWYQQKPGQPPKLLIYKASTLASGVPSRFSGSGSGAQFTLTISGVQCDDAATYYCQGGFYSGISDYPFGGGTEVEIK
Q: For B2, which EC50 [1] is on record?
A: The EC50 was 0.0832 nM.

Q: What about the “EC50 (read off the curve)” value [12] of the same binder?
A: Its value is ~0.06 µg/mL.

Q: Does B2 bind [13]?
A: Result: binds

Q: Does B2 bind [14]?
A: Result: binds

Q: Does B2 bind [15]?
A: Result: no binding (tested: 1000 ng/ml)

Q: What about the EC50 [16] of the same binder?
A: The EC50 was 0.0125 µg/mL.

Q: Does B2 bind [5]?
A: Result: no binding

Q: Does B2 bind [9]?
A: Result: binds

Q: Does B2 bind [10]?
A: Result: no binding

Q: Does B2 bind [17]?
A: Result: no binding

B3: anti-LILRB4 rabbit monoclonal antibody #156-1 (antibody, V domains shown)
VH: QSVKESEGDLVKPGASLTLTCRASGFSFSSDYNMCWVRQAAGKGLEWIACIGVGTSGKTAYATWAKGRFTISRSSSTTVALQMTSLTVADTATYFCARPSYGSGGEGGGSGLWGPGTLVTISS
VL: ELDLTQTPASVSEPVGGTVTIKCQASQSIHSDLAWYQQKPGQRPKLLIYVASYLASGVPSRFSGSGSGTEYTLTISDLECADAATYYCQSTYYGSDYVGGAFGGGTEVVVK
notes: Rabbit mAb
Q: With B3 as the binder, how does the EC50 [1] read?
A: Its EC50 is 0.0828 nM.

Q: What about the EC50 [18] of the same binder?
A: The EC50 was 0.0124 µg/mL.

B4: anti-LILRB4 rabbit monoclonal antibody #129 (antibody, V domains shown)
VH: EQSVKESGGGLVKPGASLTLTCTASGFSFSSSYHMCWVRQAPGKGLEWIGCIATGYGSTYYASWAKGRFTISKTSSTTVTLQVPSLTAADTATCFCARGYYRYTSDSYGYFDLWGPGTLVTISS
VL: ELVLTQTASPVSAAVGGTVTVNCQASQSISSGYLSWYQQKPGQPPKLLIYYASRLASGVPSRFSGSGSGTEYTLTISGVQCDDAATYYCLYVSYDGTTTDNAFGGGTEVEIK
Q: Which EC50 [1] does the source give for B4 here?
A: Its EC50 is 0.0901 nM.

Q: And the EC50 [19]?
A: Its EC50 is 0.0135 µg/mL.

Q: Does B4 bind [5]?
A: Result: no binding

Q: Does B4 bind [6]?
A: Result: no binding

Q: Does B4 bind [7]?
A: Result: no binding

Q: Does B4 bind [8]?
A: Result: no binding

Q: Does B4 bind [9]?
A: Result: no binding

Q: Does B4 bind [10]?
A: Result: no binding

B5: anti-LILRB4 rabbit monoclonal antibody #214 (antibody, V domains shown)
VH: QSVKESGGRLVTPGTPLTLTCTVSGFSLSSYWMHWVRQAPGKGLEWVGVVSVSGNFYYATWAKGRFTISKTSTTVDLKITSPTIEDTAFYFCTMSFALWGQGTLVTISS
VL: ELVMTQTASPVSAAVGGTVTINCQSSQSVYSNNNLGWLKQKPGQPPKELIYYASTLASGVPSRFKGSGSGTQFTLTISDLECDDAATYYCVGGYGCSSADCSVFGGGTEVEIK
notes: Rabbit mAb
Q: B5 was tested. Which EC50 [20] did it give?
A: The EC50 was 0.00764 µg/mL.

B6: anti-LILRB4 rabbit monoclonal antibody #210 (antibody, V domains shown)
VH: EQSVEESGGRLVTPGTPLTLTCTVSGFSLSSYIMGWVRQARGKGLEYIGAINTDGATYYATWAKGRFTISRTSTTVHLKVTSPTTEDTATYFCARSLAPGDSNINLWGQGTLVTISS
VL: ELVLTQTPSPVSAAVGGTVTISCQSSESVYRNNRLAWYQQKPGQPPKRLIYLASTLASGVPSRFKGSGSGTQFTLTISDVQCDDAAAYYCAGDSGVGIIAFGGGTEVEIK
Q: For B6, which EC50 [1] is on record?
A: Its EC50 is 0.0997 nM.

Q: Does B6 bind [13]?
A: Result: binds

Q: Does B6 bind [14]?
A: Result: binds

Q: What about the EC50 [21] of the same binder?
A: Its EC50 is 0.0149 µg/mL.

Q: Does B6 bind [5]?
A: Result: no binding

Q: Does B6 bind [6]?
A: Result: no binding

Q: Does B6 bind [9]?
A: Result: no binding

Q: Does B6 bind [10]?
A: Result: no binding

B7: anti-LILRB4 rabbit monoclonal antibody #6 (antibody, V domains shown)
VH: QSVKESGGRLVTPGTPLTLTCTASGFSLSTYYIDWVRQAPGRGLEYIGVINPGGSAVYATWAKGRFTISRTSTTVDLKMTSLTTEDTATYFCARGWSRGDLWGQGTLVTISS
VL: ELDMTQTPSPVSAAVGGTVTIKCQSSQNVYDDDTLSWYQQKPGQPPKLLIYDASKLASGVPSRFKGSGSGTQFTLTISGVQCDDAATYYCLGVFHDAADNAFGGGTELEIK
notes: Rabbit mAb
Q: How did the EC50 [1] turn out when B7 was run?
A: Its EC50 is 0.0767 nM.

Q: What about the EC50 [22] of the same binder?
A: Its EC50 is 0.0115 µg/mL.

B8: anti-LILRB4 rabbit monoclonal antibody #71-1 (antibody, V domains shown)
VH: QSVEESGGGLVKPGASLTLTCTASGFSFSSSYHMCWVRQAPGKGLEWIGCIATGYGSTYYASWAKGRFTISKTSSTTVTLQVPSLTAADTATCFCARGYYRYTSDSYGYFDLWGPGTLVTISS
VL: ELDLTQTASPVSAAVGGTVTVNCQASQSISSGYLSWYQQKPGQPPKLLIYYASRLASGVPSRFSGSGSGTEYTLTISGVQCDDAATYYCLYVSYSGTTTDNAFGGGTDVEIK
notes: Rabbit mAb
Q: How did the EC50 [1] turn out when B8 was run?
A: Its EC50 is 0.134 nM.

Q: What about the EC50 [23] of the same binder?
A: Its EC50 is 0.02 µg/mL.

B9: anti-LILRB mAb C39 (antibody, V domains shown)
VH: EVQLVESGGGLVQPGGSLKLSCAASGFTFSSYGMSWVRQTPDKRLELVATIDSNGGGTYYPDSVKGRFTISRDNAKNTLYLQMSSLKSEDTAMHYCARDGGGSYGYYYAMDYWGQGTSVTVSS
VL: DIVMSQSPSSLAVSAGEKVTMRCKSSQSLLNSRTRKSYLAWYQQKSGQSPKLLIYWASTRESGVPDRFTGSGSGTDFTLTISSVQAEDLAVYYCKQSYNLPWTFGGGTKLEIK
notes: mAb against LILRB2
Q: Does B9 bind [24]?
A: Result: binds

Q: Does B9 bind [25]?
A: Result: binds

Q: Does B9 bind [26]?
A: Result: binds

Q: What about the “% of cells in the positive gate” value [27] of the same binder?
A: Its value is 18.7%.
